{
  "source": "IntAct's records for PubMed 21529711",
  "parents": {"B1": {"name": "Protein nutcracker (Drosophila melanogaster (Fruit fly)), Q8SX86 (parent)", "chain": "MSDTKSEIEGFIAIPTTSGEQQQQQPQQQQNEQQVVGTKDIKAPDQVGKKQRPRLIQEKSTQETNPLILEHATLEWVPQHMDKLLNQYQECRKMPAAEWLHLLTYLVALECGFVEEETFAQKRHLIQPVPSFSSFHAQNVRILSEQPARYEVCFNDTVYIMRLRTLLDKHAPEETSLVAALQCRLMAVSLGDQLMITLSPAPPSKEPGYSVSLSIGRYVLNIQAKNKPIYHRFRKLDELSYQLKQHLFQPMRSQQLMQMEMKLQPSLLGLPDELYFEIFRYLDKSQLNVVARVNRHLHFYSKEVERKRLKGGRS", "partner": "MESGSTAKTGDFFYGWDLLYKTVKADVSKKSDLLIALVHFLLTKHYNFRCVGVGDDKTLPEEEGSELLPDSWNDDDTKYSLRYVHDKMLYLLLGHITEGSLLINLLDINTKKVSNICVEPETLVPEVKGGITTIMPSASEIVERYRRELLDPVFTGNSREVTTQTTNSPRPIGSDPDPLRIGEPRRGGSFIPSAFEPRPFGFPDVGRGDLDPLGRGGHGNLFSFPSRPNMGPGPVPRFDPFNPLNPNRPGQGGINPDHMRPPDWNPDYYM"}},
  "data": [
    {"variants_of": "B1", "details": "with psmf1_drome PI31, Q9V637", "values": [
      {"variant": "V188E", "effect of a mutation on the interaction": "decreasing interaction"}
    ]}
  ]
}
